Results reported in doi:10.1101/2022.07.21.500383 (bioRxiv, 2022).
Values belong to the binder of their own block, whether it stands above or below them.

Tests used:
Assay in all cases: ITC
[1] = molecular target: IL-11_(Δ10/PAIDY)/IL-11Rα_(D1-D3) binary complex (human) (UniProt P20809)
[2] = molecular target: IL-11_(Δ10/Mutein)/IL-11Rα_(D1-D3) binary complex (human) (UniProt P20809)
[3] = molecular target: T1, IL-11Δ10/IL-11Rα_(D1-D3) binary complex (human, UniProt P20809 32-199; Q14626 23-317)
T1 sequence 1: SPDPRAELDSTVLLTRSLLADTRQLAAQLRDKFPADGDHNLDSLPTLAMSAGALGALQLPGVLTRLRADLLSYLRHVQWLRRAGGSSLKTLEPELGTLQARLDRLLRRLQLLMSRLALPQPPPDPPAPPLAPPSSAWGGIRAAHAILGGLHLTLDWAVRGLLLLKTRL
T1 sequence 2: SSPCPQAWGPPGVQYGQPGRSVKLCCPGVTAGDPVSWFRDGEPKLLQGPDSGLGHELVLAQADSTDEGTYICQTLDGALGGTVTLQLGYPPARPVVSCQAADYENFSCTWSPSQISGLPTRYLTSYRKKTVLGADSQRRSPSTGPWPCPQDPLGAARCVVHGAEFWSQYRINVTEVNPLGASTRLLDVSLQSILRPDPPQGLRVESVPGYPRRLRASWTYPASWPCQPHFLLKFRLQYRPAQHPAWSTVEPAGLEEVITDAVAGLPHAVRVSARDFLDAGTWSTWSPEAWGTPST

[4] = molecular target: IL-11_(Δ10/W147A)/IL-11Rα_(D1-D3) binary complex (human) (UniProt P20809)

Kd [1]: 20 nM
Kd [2]: 55 nM
Kd [3]: 3 nM
dH [3]: -8.13 kcal/mol
B1: gp130_(D1-D3) (cytokine binding domains of gp130) (receptor, human)
chain: ELLDPCGYISPESPVVQLHSNFTAVCVLKEKCMDYFHVNANYIVWKTNHFTIPKEQYTIINRTASSVTFTDIASLNIQLTCNILTFGQLEQNVYGITIISGLPPEKPKNLSCIVNEGKKMRCEWDGGRETHLETNFTLKSEWATHKFADCKAKRDTPTSCTVDYSTVYFVNIEVWVEAENALGKVTSDHINFDPVYKVKPNPPHNLSVINSEELSSILKLTWTNPSIKSVIILKYNIQYRTKDASTWSQIPPEDTASTRSSFTVQDLKPFTEYVFRIRCMKEDGKGYWSDWSEEASGITYEDR
modifications: N-linked glycans at N21, N61, N135 (visible in the structures)

Kd [4]: 130 nM
Kd [1]: 60 nM
Kd [3]: 380 nM
dH [3]: 6.45 kcal/mol
B2: gp130_(D2-D3) (receptor, human, UniProt P40189 123-325, looked up)
chain: GLPPEKPKNLSCIVNEGKKMRCEWDGGRETHLETNFTLKSEWATHKFADCKAKRDTPTSCTVDYSTVYFVNIEVWVEAENALGKVTSDHINFDPVYKVKPNPPHNLSVINSEELSSILKLTWTNPSIKSVIILKYNIQYRTKDASTWSQIPPEDTASTRSSFTVQDLKPFTEYVFRIRCMKEDGKGYWSDWSEEASGITYEDR

dH [3]: -4.78 kcal/mol
B3: gp130EC (complete extracellular domains of gp130, D1-D6) (receptor, human, UniProt P40189 23-619, looked up)
chain: ELLDPCGYISPESPVVQLHSNFTAVCVLKEKCMDYFHVNANYIVWKTNHFTIPKEQYTIINRTASSVTFTDIASLNIQLTCNILTFGQLEQNVYGITIISGLPPEKPKNLSCIVNEGKKMRCEWDGGRETHLETNFTLKSEWATHKFADCKAKRDTPTSCTVDYSTVYFVNIEVWVEAENALGKVTSDHINFDPVYKVKPNPPHNLSVINSEELSSILKLTWTNPSIKSVIILKYNIQYRTKDASTWSQIPPEDTASTRSSFTVQDLKPFTEYVFRIRCMKEDGKGYWSDWSEEASGITYEDRPSKAPSFWYKIDPSHTQGYRTVQLVWKTLPPFEANGKILDYEVTLTRWKSHLQNYTVNATKLTVNLTNDRYLATLTVRNLVGKSDAAVLTIPACDFQATHPVMDLKAFPKDNMLWVEWTTPRESVKKYILEWCVLSDKAPCITDWQQEDGTVHRTYLRGNLAESKCYLITVTPVYADGPGSPESIKAYLKQAPPSKGPTVRTKKVGKNEAVLEWDQLPVDVQNGFIRNYTIFYRTIIGNETAVNVDSSHTEYTLSSLTSDTLYMVRMAAYTDEGGKDGPEFTFTTPKFAQGEIE
modifications: N-linked glycans at N21, N61, N135 (visible in the structures)
